Experimental findings from patent US20150307603A1 (MODIQUEST B V, published 2015) are described below.

Experiment [1] concerns the target T1, CFC-1.
T1 construct: Positive control for anti-citrulline reactivity; also called cfc1 XG; Cfc1-peptide
Briefly: ELISA, Ab 0.00064 ug/well. The protocol: (§1) Biotin and citrulline-containing peptides derived from histone 2A were immobilized on NEUTRAVIDIN®-coated 96-well ELISA plates (0.3 μg/well). CFC-1 and CFC-0 were coated at the same concentration and served as positive and negative controls, respectively, for specific anti-citrulline reactivity and as coating controls. Non-coated wells were used to test for aspecific binding of the antibodies. […] Detection of bound anti-citrulline antibodies was performed by incubating the wells with rabbit anti-human HRP (1:2000) for 1 hour at RT followed by incubation with TMB substrate. The resulting OD (y-axis) is a measure for antibody binding.

For experiment [2], the target named is T2, peptide no. 1 (human histone 2A) (human, also: biotin-labelled).
T2 construct: also called peptide 1; AAASGXGKQGGK
T2 peptide: AAASG[Cit]GKQGGK
The experiment can be described thus: ELISA, Ab 0.00064 ug/well. The protocol:
as §1

For experiment [3], the target named is T3, peptide no. 2 (human histone 2A) (human, also: biotin-labelled).
T3 construct: also called peptide 2
T3 peptide: AKAKS[Cit]SSRAGL
Briefly: ELISA, Ab 0.00064 ug/well. The protocol:
as §1

In experiment [4] the target is T4, peptide no. 4 (human histone 2A) (human, also: biotin-labelled).
T4 construct: also called peptide 4
T4 peptide: QFPVG[Cit]VHRLLR
The experiment can be described thus: ELISA, Ab 0.00064 ug/well. As to the method:
as §1

For experiment [5], the target named is T5, peptide no. 5 (human histone 2A) (human, also: biotin-labelled).
T5 construct: also called peptide 5
T5 peptide: VGRVH[Cit]LLRKGN
The experiment can be described thus: ELISA, Ab 0.00064 ug/well. As to the method:
as §1

In experiment [6] the target is T6, peptide no. 7 (human histone 2A) (human, also: biotin-labelled).
T6 construct: also called peptide 7
T6 peptide: GNYSE[Cit]VGAGAP
The experiment can be described thus: ELISA, Ab 0.00064 ug/well. The protocol:
as §1

Experiment [7] has as its target T7, peptide no. 8 (human histone 2A) (human, also: biotin-labelled).
T7 construct: also called peptide 8
T7 peptide: AGNAA[Cit]DNKKTR
Briefly: ELISA, Ab 0.00064 ug/well. The protocol:
as §1

Experiment [8] deals with T8, peptide no. 9 (human histone 2A) (human, also: biotin-labelled).
T8 construct: also called peptide 9
T8 peptide: DNKKT[Cit]IIPRHL
The experiment can be described thus: ELISA, Ab 0.00064 ug/well. The protocol:
as §1

The target of experiment [9] is T9, peptide no. 11 (human histone 2A) (human, also: biotin-labelled).
T9 construct: also called peptide 11
T9 peptide: LQLAI[Cit]NDEELN
Briefly: ELISA, Ab 0.00064 ug/well. As to the method:
as §1

For experiment [10], the target named is T10, huPAD2-deiminated human recombinant histone 2A (human).
T10 construct: also called H2A/p2; histone 2A/p2
Briefly: ELISA, Ab 0.000128 ug/well. From the text:
(§2) The resulting OD (y-axis) is a measure for antibody binding. H1-recombinant histone 1; H1/p2-huPAD2 recombinant histone 1; H1/p4-huPAD4 recombinant histone 1, and so forth (x-axis).

The target of experiment [11] is T11, human recombinant histone 2B (human).
T11 construct: Non-deiminated; also called H2B
Briefly: ELISA, Ab 0.000128 ug/well.
Text: as §2

Experiment [12] concerns the target T12, huPAD2-deiminated human recombinant histone 2B (human).
T12 construct: also called H2B/p2
The experiment can be described thus: ELISA, Ab 0.000128 ug/well.
Text: as §2

Experiment [13] deals with T13, huPAD4-deiminated human recombinant histone 2B (human).
T13 construct: also called H2B/p4
The experiment can be described thus: ELISA, Ab 0.000128 ug/well.
Text: as §2

In experiment [14] the target is T14, huPAD2-deiminated human recombinant histone 3 (human).
T14 construct: also called H3/p2; histone 3/p2
Briefly: ELISA, Ab 0.000128 ug/well.
Text: as §2

Experiment [15] has as its target T15, huPAD4-deiminated human recombinant histone 3 (human).
T15 construct: also called H3/p4
Briefly: ELISA, Ab 0.000128 ug/well.
Text: as §2

In experiment [16] the target is human recombinant histone 4 (human, UniProt P62805 2-103). Briefly: ELISA, Ab 0.000128 ug/well.
Text: as §2

Non-standard residues stand in square brackets, D forms with d. No end group written: not given here. Cit = NC(=O)NCCC[C@H](N)C(=O)O

B1: RhmAb2.102 (antibody, human IgG1, lambda)
heavy: not shown
light: QSVLTQPPSMSAAPGQKVTISCSGSSSNIGNNYVSWYQQVPGTAPKLLIYDDNKRPSGIPGRFSGSKSATSATLGITGLQAGDEADYYCGSWDDNLSVVLFGGGTKLTVLGQPKAAPSVTLFPPSSEELQANKATLVCLISDFYPGAVTVAWKADSSPVKAGVETTTPSKQSNNKYAASSYLSLTPEQWKSHRSYSCQVTHEGSTVEKTVAPTECS
notes: Human IgG1 lambda; also called Rhm2.102
Consider B1, for which the OD in [1] was found to be 0.621 OD450; in experiment [2], 0.16 OD450; in [3], 0.055 OD450; in experiment [4] it was 0.063 OD450; in experiment [5], 0.067 OD450; in experiment [6] it was 0.057 OD450. Moreover, the OD in [7] is 0.057 OD450; in experiment [8] it was 0.059 OD450; in experiment [9], 0.06 OD450; in [10] it was 0.063 OD450; in experiment [11], 0.052 OD450; in [12] it was 0.051 OD450. Also, the OD in experiment [13] was found to be 0.053 OD450; in [14] it was 0.066 OD450; in experiment [15], 0.06 OD450; in experiment [16] it was 0.06 OD450.
